Our source for the Kd and koff values is US20190169286A1 (Chugai, published 2019).

Assay [1] deals with T1, human IL-8 (human, UniProt P10145 23-99, limits assumed).
T1 construct: also called hIL-8; hIL8
Nature of the assay: SPR Biacore T200, Protein A/G capture, pH 7.4, 40C.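 Note: antibodies captured via Protein A/G, which was amine-coupled to a CM4 sensor chip.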 On the technique in general: SPR reads the build-up and loss of mass on a sensor chip optically.
Procedure: (§1) An appropriate amount of Protein A/G (PIERCE) was immobilized onto the Sensor chip CM4 (GE Healthcare) by the amine coupling method and the antibodies of interest were captured. […] To regenerate the sensor chip, 25 mM NaOH and 10 mM glycine-HCl (pH 1.5) were used. […] The BIACORE T200 Evaluation Software (GE Healthcare) was used to calculate each parameter.

The target in assay [2] is T1, human IL-8. The assay is described as follows: SPR Biacore T200, Protein A/G capture, pH 5.8, 37C.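 Note: antibodies captured by Protein A/G amine-coupled onto a CM4 sensor chip, with kinetic parameters derived using Biacore T200 Evaluation Software.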
Procedure: as §1

T1 sequence (P10145 23-99 limits assumed): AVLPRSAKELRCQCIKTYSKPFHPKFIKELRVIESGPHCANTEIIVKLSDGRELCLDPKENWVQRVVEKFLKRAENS

B1: H0932/L0395 (antibody, name in Kabat numbering, V domains shown)
VH: QVQLVESGGGLVQPGGSLRLSCAASGFTFSDYYLSWVRQAPGKGLEWVGLIRNKDNHHTPEYSASVKGRFTISRDDSKNSLYLTMSDLKTEDTAVYYCARENHRYDVELAYWGQGTLVTVSS
VL: DIQMTQSPSSLSASVGDRVTITCRASEIIYSYLAWYQQKPGKAPKLLIYKAKTHADGVPSRFSGSGSGTDFTFTISSLQPEDIATYYCKHHFGFPRTFGQGTKVEIKR
In turn, B1 showed a Kd in assay [1] of 0.00016 µM.

B2: H1022/L0395 (antibody, human IgG1, kappa, name in Kabat numbering, V domains shown)
VH: QVQLVESGGGLVQPGGSLRLSCAASGFTFSDYYLSWVRQAPGKGLEWVGLIRNKDNHHHPEYSASVKGRFTISRDDSKNSLYLTMSDLKTEDTAVYYCARENHRYDVELAYWGQGTLVTVSS
VL: DIQMTQSPSSLSASVGDRVTITCRASEIIYSYLAWYQQKPGKAPKLLIYKAKTHADGVPSRFSGSGSGTDFTFTISSLQPEDIATYYCKHHFGFPRTFGQGTKVEIKR
The molecule B2 registered a Kd in assay [1] of 0.00027 µM. Also, in assay [2], the Kd stood at 0.29 µM and the koff was 12 s⁻¹.

B3: H1047/L0442 (antibody, human IgG1, kappa, name in Kabat numbering, V domains shown)
VH: QVQLVESGGGLVQPGGSLRLSCAASGFTFDKYYLSWVRQAPGKGLEWVGLIRNKDNGYTPEYSASVKGRFTISRDDSKNSLYLTMSDLKTEDTAVYYCARENHRYDVELAYWGQGTLVTVSS
VL: DIQMTQSPSSLSASVGDRVTITCRASEIIYEYLAWYQQKPGKAPKLLIYKAKTHADGVPSRFSGSGSGTDFTFTISSLQPEDIATYYCKHHFGFPRTFGQGTKVEIKR
notes: L442 = L395 + S31E
For the molecule B3, the Kd in assay [2] is 0.047 µM.

B4: H1031/L0395 (antibody, human IgG1, kappa, name in Kabat numbering, V domains shown)
VH: QVQLVESGGGLVQPGGSLRLSCAASGFTFDKYYLSWVRQAPGKGLEWVGLIRNKDNHHHPEYSASVKGRFTISRDDSKNSLYLTMSDLKTEDTAVYYCARENHRYDVELAYWGQGTLVTVSS
VL: DIQMTQSPSSLSASVGDRVTITCRASEIIYSYLAWYQQKPGKAPKLLIYKAKTHADGVPSRFSGSGSGTDFTFTISSLQPEDIATYYCKHHFGFPRTFGQGTKVEIKR
On to B4, for which the affinity in assay [2], expressed as Kd, was 0.099 µM.

B5: H1046/L0442 (antibody, human IgG1, kappa, name in Kabat numbering, V domains shown)
VH: QVQLVESGGGLVQPGGSLRLSCAASGFTFSEYYLSWVRQAPGKGLEWVGLIRNKDNYHHPEYSASVKGRFTISRDDSKNSLYLTMSDLKTEDTAVYYCARENHRYDVELAYWGQGTLVTVSS
VL: DIQMTQSPSSLSASVGDRVTITCRASEIIYEYLAWYQQKPGKAPKLLIYKAKTHADGVPSRFSGSGSGTDFTFTISSLQPEDIATYYCKHHFGFPRTFGQGTKVEIKR
notes: L442 = L395 + S31E
In turn, B5 gave a Kd in assay [1] of 0.00023 µM.

B6: H1031/L0442 (antibody, human IgG1, kappa, name in Kabat numbering, V domains shown)
VH: QVQLVESGGGLVQPGGSLRLSCAASGFTFDKYYLSWVRQAPGKGLEWVGLIRNKDNHHHPEYSASVKGRFTISRDDSKNSLYLTMSDLKTEDTAVYYCARENHRYDVELAYWGQGTLVTVSS
VL: DIQMTQSPSSLSASVGDRVTITCRASEIIYEYLAWYQQKPGKAPKLLIYKAKTHADGVPSRFSGSGSGTDFTFTISSLQPEDIATYYCKHHFGFPRTFGQGTKVEIKR
notes: L442 = L395 + S31E
Regarding B6, the equilibrium dissociation constant (Kd) in assay [2] amounted to 0.089 µM.

B7: H1048/L0395 (antibody, human IgG1, kappa, name in Kabat numbering, V domains shown)
VH: QVQLVESGGGLVQPGGSLRLSCAASGFTFSEYYLSWVRQAPGKGLEWVGLIRNKDNGYTPEYSASVKGRFTISRDDSKNSLYLTMSDLKTEDTAVYYCARENHRYDVELAYWGQGTLVTVSS
VL: DIQMTQSPSSLSASVGDRVTITCRASEIIYSYLAWYQQKPGKAPKLLIYKAKTHADGVPSRFSGSGSGTDFTFTISSLQPEDIATYYCKHHFGFPRTFGQGTKVEIKR
Consider B7, for which the Kd in assay [2] is 0.09 µM.

B8: H1000/L0395 (antibody, human IgG1, kappa, name in Kabat numbering, V domains shown)
VH: QVQLVESGGGLVQPGGSLRLSCAASGFTFSEYYLSWVRQAPGKGLEWVGLIRNKDNHHTPEYSASVKGRFTISRDDSKNSLYLTMSDLKTEDTAVYYCARENHRYDVELAYWGQGTLVTVSS
VL: DIQMTQSPSSLSASVGDRVTITCRASEIIYSYLAWYQQKPGKAPKLLIYKAKTHADGVPSRFSGSGSGTDFTFTISSLQPEDIATYYCKHHFGFPRTFGQGTKVEIKR
For the molecule B8, in assay [1], the Kd was 0.00014 µM. In assay [2], this molecule yielded a Kd of 0.089 µM and a koff of 0.02 s⁻¹.

B9: H1009/L0442 (antibody, human IgG1, kappa, name in Kabat numbering, V domains shown)
VH: QVQLVESGGGLVQPGGSLRLSCAASGFTFSDYYLSWVRQAPGKGLEWVGLIRNKDNYHTPEYSASVKGRFTISRDDSKNSLYLTMSDLKTEDTAVYYCARENHRYDVELAYWGQGTLVTVSS
VL: DIQMTQSPSSLSASVGDRVTITCRASEIIYEYLAWYQQKPGKAPKLLIYKAKTHADGVPSRFSGSGSGTDFTFTISSLQPEDIATYYCKHHFGFPRTFGQGTKVEIKR
notes: L442 = L395 + S31E
B9 displayed a Kd in assay [1] of 0.00011 µM. In assay [2], this molecule registered a Kd of 0.063 µM and a koff of 0.006 s⁻¹.

B10: H0932/L0442 (antibody, human IgG1, kappa, name in Kabat numbering, V domains shown)
VH: QVQLVESGGGLVQPGGSLRLSCAASGFTFSDYYLSWVRQAPGKGLEWVGLIRNKDNHHTPEYSASVKGRFTISRDDSKNSLYLTMSDLKTEDTAVYYCARENHRYDVELAYWGQGTLVTVSS
VL: DIQMTQSPSSLSASVGDRVTITCRASEIIYEYLAWYQQKPGKAPKLLIYKAKTHADGVPSRFSGSGSGTDFTFTISSLQPEDIATYYCKHHFGFPRTFGQGTKVEIKR
Regarding B10, the Kd in assay [2] amounted to 0.079 µM.

B11: H1004/L0442 (antibody, human IgG1, kappa, name in Kabat numbering, V domains shown)
VH: QVQLVESGGGLVQPGGSLRLSCAASGFTFSDYYLSWVRQAPGKGLEWVGLIRNKDNGYTPEYSASVKGRFTISRDDSKNSLYLTMSDLKTEDTAVYYCARENHRYDVELAYWGQGTLVTVSS
VL: DIQMTQSPSSLSASVGDRVTITCRASEIIYEYLAWYQQKPGKAPKLLIYKAKTHADGVPSRFSGSGSGTDFTFTISSLQPEDIATYYCKHHFGFPRTFGQGTKVEIKR
notes: L442 = L395 + S31E
In turn, B11 displayed a Kd in assay [1] of 0.00022 µM. Besides, in assay [2], the affinity, expressed as Kd, was 0.077 µM and the koff is 0.02 s⁻¹.

B12: H1000/L0442 (antibody, human IgG1, kappa, name in Kabat numbering, V domains shown)
VH: QVQLVESGGGLVQPGGSLRLSCAASGFTFSEYYLSWVRQAPGKGLEWVGLIRNKDNHHTPEYSASVKGRFTISRDDSKNSLYLTMSDLKTEDTAVYYCARENHRYDVELAYWGQGTLVTVSS
VL: DIQMTQSPSSLSASVGDRVTITCRASEIIYEYLAWYQQKPGKAPKLLIYKAKTHADGVPSRFSGSGSGTDFTFTISSLQPEDIATYYCKHHFGFPRTFGQGTKVEIKR
notes: L442 = L395 + S31E
In turn, B12 registered a Kd in assay [1] of 0.0002 µM. In assay [2], the Kd came out at 0.071 µM and the koff turned out to be 0.017 s⁻¹.

B13: H1048/L0442 (antibody, human IgG1, kappa, name in Kabat numbering, V domains shown)
VH: QVQLVESGGGLVQPGGSLRLSCAASGFTFSEYYLSWVRQAPGKGLEWVGLIRNKDNGYTPEYSASVKGRFTISRDDSKNSLYLTMSDLKTEDTAVYYCARENHRYDVELAYWGQGTLVTVSS
VL: DIQMTQSPSSLSASVGDRVTITCRASEIIYEYLAWYQQKPGKAPKLLIYKAKTHADGVPSRFSGSGSGTDFTFTISSLQPEDIATYYCKHHFGFPRTFGQGTKVEIKR
notes: L442 = L395 + S31E
In assay [2], B13 displayed a Kd of 0.067 µM.

B14: H1022/L0442 (antibody, human IgG1, kappa, name in Kabat numbering, V domains shown)
VH: QVQLVESGGGLVQPGGSLRLSCAASGFTFSDYYLSWVRQAPGKGLEWVGLIRNKDNHHHPEYSASVKGRFTISRDDSKNSLYLTMSDLKTEDTAVYYCARENHRYDVELAYWGQGTLVTVSS
VL: DIQMTQSPSSLSASVGDRVTITCRASEIIYEYLAWYQQKPGKAPKLLIYKAKTHADGVPSRFSGSGSGTDFTFTISSLQPEDIATYYCKHHFGFPRTFGQGTKVEIKR
notes: L442 = L395 + S31E
For B14, in assay [1], the Kd is 0.00036 µM. In assay [2], this molecule returned a Kd of 0.18 µM and an off-rate (koff) of 0.02 s⁻¹.

As usually defined, the Kd is the free concentration of one partner at which half of the binding sites on the other are occupied at equilibrium, for simple one-to-one binding. As usually defined, the koff is a measure of how fast the partners let go of each other. The low end stands for slow dissociation, the high end for fast dissociation.
